Target: neurogenic locus notch homolog protein 1 (NOTCH1) (UniProt P46531 19-2555, limits assumed)
Experiment: large-scale immunoaffinity purification and LC-MS analysis

neurogenic locus notch homolog protein 1 (NOTCH1), sequence (P46531 19-2555 limits assumed): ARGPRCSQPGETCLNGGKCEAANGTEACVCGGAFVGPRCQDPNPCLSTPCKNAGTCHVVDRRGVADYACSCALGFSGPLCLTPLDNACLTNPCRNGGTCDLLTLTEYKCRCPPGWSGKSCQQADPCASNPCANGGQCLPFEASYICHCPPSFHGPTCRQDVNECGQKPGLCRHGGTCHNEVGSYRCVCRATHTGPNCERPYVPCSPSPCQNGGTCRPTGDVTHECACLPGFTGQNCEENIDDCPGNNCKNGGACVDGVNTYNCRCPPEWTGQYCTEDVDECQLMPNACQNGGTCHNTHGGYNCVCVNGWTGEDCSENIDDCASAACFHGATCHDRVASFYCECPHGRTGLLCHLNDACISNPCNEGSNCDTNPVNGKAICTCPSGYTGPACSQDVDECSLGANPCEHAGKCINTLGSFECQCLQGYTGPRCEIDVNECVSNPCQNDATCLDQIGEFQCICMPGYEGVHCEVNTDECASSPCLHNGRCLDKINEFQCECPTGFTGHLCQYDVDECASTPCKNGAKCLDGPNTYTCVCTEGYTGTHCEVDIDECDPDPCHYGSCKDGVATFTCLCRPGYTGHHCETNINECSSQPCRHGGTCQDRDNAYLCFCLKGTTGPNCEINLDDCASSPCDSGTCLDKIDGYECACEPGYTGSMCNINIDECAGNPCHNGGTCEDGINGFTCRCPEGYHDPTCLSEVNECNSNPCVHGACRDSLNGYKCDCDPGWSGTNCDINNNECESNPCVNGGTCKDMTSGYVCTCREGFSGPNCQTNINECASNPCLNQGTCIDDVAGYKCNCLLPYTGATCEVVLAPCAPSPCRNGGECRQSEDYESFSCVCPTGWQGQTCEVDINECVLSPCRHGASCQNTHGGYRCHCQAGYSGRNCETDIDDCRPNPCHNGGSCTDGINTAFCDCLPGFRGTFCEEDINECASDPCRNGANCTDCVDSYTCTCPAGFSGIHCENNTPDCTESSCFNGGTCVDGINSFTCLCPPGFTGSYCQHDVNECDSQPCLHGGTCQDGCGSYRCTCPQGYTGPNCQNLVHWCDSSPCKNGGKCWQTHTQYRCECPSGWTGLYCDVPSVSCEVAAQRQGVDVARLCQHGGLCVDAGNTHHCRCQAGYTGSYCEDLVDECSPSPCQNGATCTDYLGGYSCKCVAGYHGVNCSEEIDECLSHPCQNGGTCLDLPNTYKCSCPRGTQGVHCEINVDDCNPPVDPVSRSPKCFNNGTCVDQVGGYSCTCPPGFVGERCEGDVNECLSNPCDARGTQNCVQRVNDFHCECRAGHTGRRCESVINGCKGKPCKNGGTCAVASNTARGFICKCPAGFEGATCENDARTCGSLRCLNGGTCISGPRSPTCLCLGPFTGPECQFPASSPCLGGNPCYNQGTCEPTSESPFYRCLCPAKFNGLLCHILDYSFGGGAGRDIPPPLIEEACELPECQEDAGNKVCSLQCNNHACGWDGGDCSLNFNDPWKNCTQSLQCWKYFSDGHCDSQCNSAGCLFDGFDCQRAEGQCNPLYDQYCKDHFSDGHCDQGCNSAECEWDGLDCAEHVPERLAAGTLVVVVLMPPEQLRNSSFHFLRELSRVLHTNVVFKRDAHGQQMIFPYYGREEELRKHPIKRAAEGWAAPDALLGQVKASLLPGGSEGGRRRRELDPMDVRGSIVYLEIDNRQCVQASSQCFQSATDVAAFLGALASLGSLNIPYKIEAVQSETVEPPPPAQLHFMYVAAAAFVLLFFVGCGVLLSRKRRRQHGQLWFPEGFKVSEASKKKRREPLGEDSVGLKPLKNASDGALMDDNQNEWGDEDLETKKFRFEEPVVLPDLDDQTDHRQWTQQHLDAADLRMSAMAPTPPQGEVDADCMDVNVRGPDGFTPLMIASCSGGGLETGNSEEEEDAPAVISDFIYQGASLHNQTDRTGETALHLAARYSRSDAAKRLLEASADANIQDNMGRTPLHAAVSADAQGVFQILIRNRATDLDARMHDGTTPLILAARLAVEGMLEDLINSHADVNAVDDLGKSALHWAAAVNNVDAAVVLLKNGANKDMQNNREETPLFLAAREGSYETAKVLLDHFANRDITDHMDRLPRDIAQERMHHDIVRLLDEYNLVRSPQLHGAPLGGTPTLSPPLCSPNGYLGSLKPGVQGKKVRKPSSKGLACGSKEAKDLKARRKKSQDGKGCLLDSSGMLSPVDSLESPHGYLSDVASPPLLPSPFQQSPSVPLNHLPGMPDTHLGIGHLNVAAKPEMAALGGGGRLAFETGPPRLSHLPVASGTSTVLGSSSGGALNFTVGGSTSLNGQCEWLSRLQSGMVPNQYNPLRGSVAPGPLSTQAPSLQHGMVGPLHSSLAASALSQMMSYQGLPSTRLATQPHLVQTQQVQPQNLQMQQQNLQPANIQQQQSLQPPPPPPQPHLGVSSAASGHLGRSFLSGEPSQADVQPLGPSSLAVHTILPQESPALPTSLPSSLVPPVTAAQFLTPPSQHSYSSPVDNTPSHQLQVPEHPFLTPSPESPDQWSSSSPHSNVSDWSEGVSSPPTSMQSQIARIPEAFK

B1: Tre2-Bub2-Cdc16 domain family member 15 (TBC1D15) (other, UniProt Q8TC07 1-691, looked up)
chain: MAAAGVVSGKIIYEQEGVYIHSSCGKTNDQDGLISGILRVLEKDAEVIVDWRPLDDALDSSSILYARKDSSSVVEWTQAPKERGHRGSEHLNSYEAEWDMVNTVSFKRKPHTNGDAPSHRNGKSKWSFLFSLTDLKSIKQNKEGMGWSYLVFCLKDDVVLPALHFHQGDSKLLIESLEKYVVLCESPQDKRTLLVNCQNKSLSQSFENLLDEPAYGLIQAGLLDRRKLLWAIHHWKKIKKDPYTATMIGFSKVTNYIFDSLRGSDPSTHQRPPSEMADFLSDAIPGLKINQQEEPGFEVITRIDLGERPVVQRREPVSLEEWTKNIDSEGRILNVDNMKQMIFRGGLSHALRKQAWKFLLGYFPWDSTKEERTQLQKQKTDEYFRMKLQWKSISQEQEKRNSRLRDYRSLIEKDVNRTDRTNKFYEGQDNPGLILLHDILMTYCMYDFDLGYVQGMSDLLSPLLYVMENEVDAFWCFASYMDQMHQNFEEQMQGMKTQLIQLSTLLRLLDSGFCSYLESQDSGYLYFCFRWLLIRFKREFSFLDILRLWEVMWTELPCTNFHLLLCCAILESEKQQIMEKHYGFNEILKHINELSMKIDVEDILCKAEAISLQMVKCKELPQAVCEILGLQGSEVTTPDSDVGEDENVVMTPCPTSAFQSNALPTLSASGARNDSPTQIPVSSDVCRLTPA
notes: TBC1D15 as present in cell lysates (co-IP); also called TBC1 domain family member 15
Does B1 bind?
Result: binds

Reference: US20220323386A1 (UNIVERSITY OF SOUTHERN CALIFORNIA, published 2022)
